For the test, the target named is CD4-IgG (human, UniProt P01730 26-205). Nature of the test: immunoaffinity chromatography of BT20 conditioned medium on CD4-IgG-Protein A precolumn, SDS-PAGE with silver staining. Here is the method: BT20 cells were grown to 80% confluence in 150 mm plates, harvested by 5 mM EDTA in PBS, and seeded into […] roller bottles with growth medium. After 1 week of growth the cells were nearly confluent. The growth medium was removed, the cells washed with PBS, and serum-free growth medium was added. After 5 days, conditioned medium was harvested (12 liters from 72 roller bottles), centrifuged, sterile filtered, concentrated in a 12 kD molecular weight cutoff Amicon filter, and stored at −70° C.
200 ml of BT20 conditioned media, concentrated as described above from 12 liters and frozen, was thawed, centrifuged at 17,000 rpm in a Sorvall SS34 rotor, and filtered through a 0.45 µm filter to clarify the solution. The 200 ml was pumped through a 2.0 ml CD4-IgG—Protein A (CD4-IgG covalently linked to Protein A through IgG moiety) immunoaffinity precolumn and a 1.0 ml REK7-IgG—Protein A (REK7-IgG covalently linked to Protein A through IgG moiety) immunoaffinity column in tandem with a flow rate of 0.5 ml/min. All chromatography was carried out at 4° C. […] The eluates were brought to pH 7.4 by the addition of 50 mM potassium phosphate, and an aliquot of each was analyzed by sodium dodecycl sulfate (SDS)—polyacrylamide gel electrophoresis (PAGE). […]

B1: AL-1 (REK7 ligand) purified from BT20 cell conditioned medium (ligand)
chain: QDPGSKAVADRYAVYWNSSNPRFQRGDYHIDVCINDYLDVFCPHYEDSVPEDKTERYVLYMVNFDGYSACDHTSKGFKRWECNRPHSPNGPLKFSEKFQLFTPFSLGFEFRPGREYFYISSAIPDNGRRSCLKLKVFVRPTNSCMKTIGVHDRVFDVNDKVENSLEPADDTVHESAEPSRGEN
notes: Soluble forms in serum-free conditioned medium of human BT20 cells; The 27,000 and 25,000 Dalton proteins appeared to be proteolytically processed forms of the 28,000 Dalton protein; also called 28,000, 27,000 and 25,000 Dalton proteins; BT20 cell-derived AL-1
Take B1: the binding result is “no binding”.

The values above are taken from patent publication US7067484 (Genentech, dated 2006).
